According to paper PMC9952896:

Columns and labels:
HSP-CGFP [GFP: P42212] = test: split reporter (BiFC, NanoBiT); split-GFP reassembly competition assay, GFP variant sg100: E. coli T7 cells co-transformed with the NGFP plasmid, the CGFP plasmid and p17Tet with a competitor or p17Tet-stop; 0.5 mM IPTG and 2% arabinose, overnight to 72 h at 17 °C; fluorescence (arbitrary units) divided by OD600 of cells resuspended in PBS, triplicates
[1] = target: XD-CGFP (not His-tagged) (measles virus | not stated) (UniProt P03422); test: as above
[2] = target: HSP (hsp70) (Homo sapiens) (UniProt P0DMV8); details: cited from earlier work
Chain of UniProt P0DMV8 (P0DMV8 2-641): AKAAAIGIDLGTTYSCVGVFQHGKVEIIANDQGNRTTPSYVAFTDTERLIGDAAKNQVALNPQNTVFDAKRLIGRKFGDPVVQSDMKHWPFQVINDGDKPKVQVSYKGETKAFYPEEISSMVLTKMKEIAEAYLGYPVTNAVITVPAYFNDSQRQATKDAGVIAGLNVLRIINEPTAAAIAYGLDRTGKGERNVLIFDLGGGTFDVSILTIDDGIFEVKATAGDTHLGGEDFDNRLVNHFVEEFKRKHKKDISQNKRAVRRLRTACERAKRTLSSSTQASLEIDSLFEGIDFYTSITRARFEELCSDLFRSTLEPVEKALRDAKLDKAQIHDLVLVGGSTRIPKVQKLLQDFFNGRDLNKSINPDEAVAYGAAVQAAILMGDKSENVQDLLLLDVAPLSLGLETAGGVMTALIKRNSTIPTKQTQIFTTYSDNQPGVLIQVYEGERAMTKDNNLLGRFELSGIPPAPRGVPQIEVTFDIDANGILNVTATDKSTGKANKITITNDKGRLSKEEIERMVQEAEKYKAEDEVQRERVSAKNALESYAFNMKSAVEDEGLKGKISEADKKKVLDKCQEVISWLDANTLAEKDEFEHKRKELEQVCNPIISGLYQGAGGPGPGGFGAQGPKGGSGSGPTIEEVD

NGFP alone (His-NGFP, from the construct NGFP-stop) (from UniProt P42212 1-157) (domain or fragment)
fluorescence to OD600 ratio (arbitrary units/OD600) (HSP-CGFP [GFP: P42212]): 200 | fluorescence to OD600 ratio (arbitrary units/OD600) [1]: 200

NGFP-471 (His-NGFP-471) (from UniProt P42212 1-157; P04851 471-525) (domain or fragment)
fluorescence signal (fluorescence/OD600) (arbitrary units/OD600) (HSP-CGFP [GFP: P42212]): 300

Nucleoprotein NTAIL NTAIL (from UniProt P35972)
Kd [2]: 70 µM
